Laboratory results published in the supplement of paper PMC12764529.

Assay: folding stability dG unfold (combined trypsin and chymotrypsin); higher = more stable
Description: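 Folding stability of de novo designed mini-proteins (<80 aa, no Cys; designed by TrROS, TrMRF, ProteinMPNN and the joint model) was measured by cDNA display proteolysis with trypsin and chymotrypsin. Each protease was used at 11 concentrations in a threefold dilution series plus a no-protease condition. K50 was inferred by Bayesian fitting of sequencing counts, and dG unfold was derived against a sequence-predicted unfolded-state K50 (Tsuboyama et al. method). Sequences shown include variable-length N-terminal GS-type padding (SAGGSAGG...) inside a display construct carrying a PA tag. Rows were kept only if the AF2 dimer inter-PAE was >15, to exclude likely homo-oligomers.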

Folding stability dG unfold, < -1 kcal/mol:
SAGGSAGGSAGGGFEITLPDKPIKVLEARFIPEKKLVEVLAEHPDGVLVRGVFPPELKLGSAGGSAGGSAGG [r7_427_TrMRF]
SAGGKDAIVNVVEIPIKIEVKTKTKNPILPDGIPIPETELEVKIEIPIKVKPVKVKLEKPGKIVSVEDSAGG [r13_148_TrMRF]
SAGGSAGGSSQEIQKRIQDRLRPRGPNRKPTPLEFTPKNGTITIKWKNPWHRKALKELPGIEPSAGGSAGGS [r12_623_TrROS]
SAGGSAGGSATPTPGDDYVYLTEESPDGRTIRYPETGSTIYIPADVPVNLKVNPVRGPDGVPESAGGSAGGS [r20_105_JUSTAS]
SAGGSAGGFTFRDPENGRKITIEPQPNPDGPMYYNIEVRDPDNNENKTINFPMPLNEIEDLAKDSAGGSAGG [r6_996_TrROS]
SDPQQLPPELIDNIAKEFPHIKAIEIQPHPPGMVHVDAEYRDDGKEKRVEFQIPNPNGNTHQFEIEIRKPSA [r9_678_TrROS]
SMPTTVLGSSPSVLPDGSVRYPVAVRRYPEYGVLVEETVTYFPGSGKFVPERRVEIPPDNPAALEWVRRESA [r9_980_JUSTAS]
SAGGSAGGSAGLNVGDVVVEVEAGTEYEFLIPNPAKLVKVKVVPDPTTNELKVEEAKVYDLKSAGGSAGGSA [r18_222_TrMRF]
SAGGKPMIHINMEENPNGNPYMRVQVMRMDPKNNGWKPVEEVRFDSPQDMRDEAKELADKEGVYLMISAGGS [r16_512_TrROS]
SAGMSTSSPTAKSTVLETSEEGNTVTKKVKVTTPSKDSSGNSSTTTTTTTITTELKGKPEPKTPEYYAKSAG [r5_70_JUSTAS]
SGDSIHIPPNDLEYAKRIVKDLLDNGRDTIMMNSPEYKKELKEALPGVKVEPVPPMPPPPPSPEDKDKLNSA [r9_639_TrROS]
SAGGSAGGSASEIDELLAAGYTVLVKPPDGSEKVIKPGDTASNLDETFNLSPDAEFVIEPKSAGGSAGGSAG [r3_216_JUSTAS]
SAGGSGMNITVEPVLSPDGTLTVTTTDPATGKTVSTTTTPVPRGPLPPPVRPLLGLDDRNGRPLLLSAGGSA [r2_78_JUSTAS]
SAGGIRMPPGQTQTFKLPGRKIEVHMGPNGPIYIEIENPGNGEPVEVPMRGDMTIDEMADAILDKLGSAGGS [r8_158_TrROS]
SAGGSAGGSAGPPVPKLFKVKEVTYHPGPKTVTVKTENGETITVPPGVAENVPPGGYLAASAGGSAGGSAGG [r11_124_TrMRF]
SAGGSAGGSAGGSGELTMMMVEPNPDGRVKVRTFKIELPPGGLKIDEVEEKTIPPEDAKSAGGSAGGSAGGS [r4_389_TrROS]
SAGGRGPGLPVSERKIVETRDLDPDEVSEEEIAERIKEENPDAVVEELEVDTKESKAVFKIKVKKLESAGGS [r8_202_JUSTAS]
SAGGSAGGSAGGSGNFTIDPALLEEARAEAAAAGEALETIPLKVTRPGGETKTIDIKVGSAGGSAGGSAGGS [r4_367_JUSTAS]
SAGGSAGGSAGVKPGQTIEVPGAKITVEEVDGKLVLKVEELPPPPAPEVEVKRYVSEEDLSAGGSAGGSAGG [r11_534_TrROS_Hall]
SAGGSAGGSAYKLKDITMRRMPNGYHEVEIKVDNGKKIDVTIPPDNPGRSIEEFAKEVLDNSAGGSAGGSAG [r3_368_TrROS]
GMRPVTATIEIGPNGKLTLQPAVGPSTVVPVKSKEEGIAVVKELVPPDRPITLTFYEKSKKISTEPIEIPPS [r1_276_JUSTAS]
SAGGSAGGSAGGMKVVFNIHRPDSDEVLTVDDMEKLKETSLEELAKKLEEENGYPVEVVLSAGGSAGGSAGG [r7_259_JUSTAS]
SAGGSAGGSAGGPERLVLASFIPGPRLLHVVEVSLDGVGASISPSVFSIHPDRPDEIEPVSAGGSAGGSAGG [r7_866_TrMRF]
SAGGSAGGSAGYIMIKSPEMAEEMAKPGYEIEVEPVPPKDINNGDPNDTMYIIEIKPPGKSAGGSAGGSAGG [r11_168_TrROS]
SAGGSAGGSANFRILVDPPTNKIWIFDPPGYVYKIKVDPKEGKMKHEPVPIPPDDLPPNAFKSAGGSAGGSA [r18_59_TrROS]
SAGGSAGGSAGGGHMIYVPPSATLEEAEKLAKELGIEDAEIIPVPEGEPLFFTPEWKLVSAGGSAGGSAGGS [r10_1083_JUSTAS]
EPEYVVFVDINPVFTRVDENGNVLEEFPRKVPYTGPGKDPEKVREELEREYGPPVKILKTLPKSEVDAGLLS [r1_493_JUSTAS]
SAGMVKEVKSEEEAKKLPPGTLVKLTKPDPTSNKDVTYYRTYPDGSGGILAKSDSSGKVDLTPEIKKILSAG [r5_490_JUSTAS]
YEIKDVEFPPYEHPGQEYPMFKIEVKDENGKPKKKVYINPNSGQLIPPGQSLEDMPMPPPFRKFAKELADES [r1_354_TrROS]
